Experiment [1] concerns the target 6xHis-CtBP (UniProt Q13363). Nature of the experiment: competition assay of the CtBP/E1A protein interaction (format not said).
Experiment [2] concerns the target 6xHis-CtBP (UniProt Q13363). The experiment in a line: competition assay of the CtBP/E1A interaction, FIG. 3.
The target of experiment [3] is 6xHis-CtBP (UniProt Q13363). The experiment in a line: competition assay of the CtBP-E1A interaction (AlphaScreen or fluorescence polarization; not said which). (Bead proximity is the source of the signal in Alpha formats.)
The target of experiment [4] is 6xHis-CtBP (UniProt Q13363). Nature of the experiment: fluorescence polarization; unlabeled peptide competes with the FITC-labeled 14mer peptide for CtBP. (In general: Polarisation of emitted light reports the rotation of a fluorescent probe.)

Broadly, the IC50 is the concentration that gives 50% inhibition. A lower IC50 goes with greater potency.

Turning to Tat-E1A-flag (peptide), the concentration for half-maximal inhibition (IC50) with 6xHis-CtBP [1] worked out at 1.7 µM; in the experiment with 6xHis-CtBP [2] it was 7.7 µM; with 6xHis-CtBP [3] it was 1.7 µM.

On to Wild-type 14mer E1A peptide …, for which the half-maximal inhibitory concentration (IC50) came out at 6 µM with 6xHis-CtBP [4], 7.26 µM with 6xHis-CtBP [1] and 7.26 µM in the experiment with 6xHis-CtBP [3].

These data come from patent publication US20160159872A1.
